For the experiment, the system named is Candida albicans FP633. The experiment in a line: Survival of neutropenic mice with disseminated candidiasis (G-CSF and Test Compound, alone and combined). It counts as in vivo, ICR mice. To be noted: C. albicans, day 6 after infection. As for the experimental part: Disseminated candidiasis were induced in ICR mice by the intravenous inoculation of 0.2 ml of cell suspension of Candida albicans FP633 via their lateral tail veins. Cyclophosphamide was administered intraperitoneally at 200 mg/kg 4 days before and 1 day after infection. G-CSF was administered intraperitoneally once daily for 5 days starting at 3 days before infection. Test Compound was administered once daily for 4 days starting at 1 hour after infection by intravenous injection. The survival rate (%) was calculated at 6 days after infection.
1) Survival rate of neutropenic mice infected with C. albicans on day 6 after infection

In the case of `CCCCCOc1ccc(-c2cc(-c3ccc(C(=O)NC4CC(O)C(O)NC(=O)C5C(O)C(C)CN5C(=O)C(C(O)CC(N)=O)NC(=O)C(C(O)C(O)c5ccc(O)c(OS(=O)(=O)[O-])c5)NC(=O)C5CC(O)CN5C(=O)C(C(C)O)NC4=O)cc3)no2)cc1.[Na+]` (stereo not shown) [Test Compound], where the note is “Test Compound 0.2 mg/kg i.v. once daily for 4 days, G-CSF 0 μg/kg, cyclophosphamide-treated neutropenic ICR mice”, the Survival rate is given as 25%.

B1: G-CSF: granulocyte colony stimulating factor, stimulates the production of white blood cells (protein, UniProt P09919 31-207, looked up)
Granulocyte …: TPLGPASSLPQSFLLKCLEQVRKIQGDGAALQEKLVSECATYKLCHPEELVLLGHSLGIPWAPLSSCPSQALQLAGCLSQLHSGLFLYQGLLQALEGISPELGPTLDTLQLDVADFATTIWQQMEELGMAPALQPTQGAMPAFASAFQRRAGGVLVASHLQSFLEVSYRVLRHLAQP
Consider B1, for which the Survival rate by setting is: (G-CSF 2.5 μg/kg i.p. once daily for 5 days, Test Compound 0 mg/kg, neutropenic ICR mice) 0%; (G-CSF 5 μg/kg i.p. once daily for 5 days, Test Compound 0 mg/kg, neutropenic ICR mice) 25%; (G-CSF 10 μg/kg i.p. once daily for 5 days, Test Compound 0 mg/kg, neutropenic ICR mice) 50%.

The record behind these values is patent US20040023858A1, “Antifungal combination therapy” (priority 2000, published 2004).
